B1: HDV Ribozyme (parent)
chain: GGCCGGCAUGGUCCCAGCCUCCUCGCUGGCGCCGGCUGGGCAACAUUCCGAGGGGACCGUCCCCUCGGUAAUGGCGAAUGGGACCCA

Variants of: B1
Experiment: self-cleavage, relative activity (ratio to wild type); higher = more cleavage; co-transcriptional

| Variant | self-cleavage |
| --- | --- |
| GGCCGGCAUGGUCCCAGCCUCCUCGCUGGCGCCGGCUGGGCAACAUUCCGAGGGGACCGUUCCCUCGGUAAUGGCGAACGGGACCCA | 0.487 |
| GGCCGGCAUGGUCCCAGCCUCCUCGCUGGCGCCGGCUGGGCAACAUUCCGAGGGGACCGUCACCUCGGUACUGGCGAAUGGGACCCA | 0.85 |
| GGCCGGCAUGGUCCCAGCCUCCUCGCUGGCGCCGGCUGGGCAACAUUCCGAGGGGACCGUCACCUCGGUAGUGGCGAAUGGGACCCA | 1.03 |
| GGCCGGCAUGGUCCCAGCCUCCUCGCUGGCGCCGGCUGGGCAACAUUCCGAGGGGACCGUCACCUCGGUAAUGGCGAAUGGGCCCCA | 0.315 |
| GGCCGGCAUGGUCCCAGCCUCCUCGCUGGCGCCGGCUGGGCAACAUUCCGAGGGGACCGUCAGCUCGGUAAUGGCGAAUGGGACCCA | 0.7 |
| GGCCGGCAUGGUCCCAGCCUCCUCGCUGGCGCCGGCUGGGCAACAUUCCGAGGGGACCGUCACAUCGGUAAUGGCGAAUGGGACCCA | 0.332 |
| GGCCGGCAUGGUCCCAGCCUCCUCGCUGGCGCCGGCUGGGCAACAUUCCGAGGGGACCGUCACGUCGGUAAUGGCGAAUGGGACCCA | 0.142 |
| GGCCGGCAUGGUCCCAGCCUCCUCGCUGGCGCCGGCUGGGCAACAUUCCGAGGGGACCGUCACCUCGGUAAUGGGGAAUGGGACCCA | 0.0519 |
| GGCCGGCAUGGUCCCAGCCUCCUCGCUGGCGCCGGCUGGGCAACAUUCCGAGGGGACCGUCACCUCGGUAAUGGCGAAUGGGAUCCA | 0.618 |
| GGCCGGCAUGGUCCCAGCCUCCUCGCUGGCGCCGGCUGGGCAACAUUCCGAGGGGACCGUCACCUCGGUAAUGGCGAAUGGGACUCA | 1.05 |
| GGCCGGCAUGGUCCCAGCCUCCUCGCUGGCGCCGGCUGGGCAACAUUCCGAGGGGACCGUCACCUCGGUAAUGGCGAAUGGGACCGA | 0.975 |
| GGCCGGCAUGGUCCCAGCCUCCUCGCUGGCGCCGGCUGGGCAACAUUCCGAGGGGACCGUCACCUCGGUAAUGGCGAAUGGGACCUA | 1.03 |
| GGCCGGCAUGGUCCCAGCCUCCUCGCUGGCGCCGGCUGGGCAACAUUCCGAGGGGACCGUCACCUCGCUAAUGGCGAAUGGGACCCA | 0.883 |
| GGCCGGCAUGGUCCCAGCCUCCUCGCUGGCGCCGGCUGGGCAACAUUCCGAGGGGACCGUCACCUCGGUAAUGACGAAUGGGACCCA | 0.619 |
| GGCCGGCAUGGUCCCAGCCUCCUCGCUGGCGCCGGCUGGGCAACAUUCCGAGGGGACCGUCACCUCGGUAAUGUCGAAUGGGACCCA | 0.367 |
| GGCCGGCAUGGUCCCAGCCUCCUCGCUGGCGCCGGCUGGGCAACAUUCCGAGGGGACCGUCACCUCGGUAAUGGCCAAUGGGACCCA | 1.02 |
| GGCCGGCAUGGUCCCAGCCUCCUCGCUGGCGCCGGCUGGGCAACAUUCCGAGGGGACCGUCACCUCGGUAAUGGCGAAUUGGACCCA | 0.16 |
| GGCCGGCAUGGUCCCAGCCUCCUCGCUGGCGCCGGCUGGGCAACAUUCCGAGGGGACCGUCACCUCGGUAAUGGCGAAUGCGACCCA | 0.138 |
| GGCCGGCAUGGUCCCAGCCUCCUCGCUGGCGCCGGCUGGGCAACAUUCCGAGGGGACCGUCACCUCGGUAAUGGCGAAGGGGACCCA | 0.862 |
| GGCCGGCAUGGUCCCAGCCUCCUCGCUGGCGCCGGCUGGGCAACAUUCCGAGGGGACCGUCGCCUCGGUUAUGGCGAAUGGGACCCA | 0.665 |
| GGCCGGCAUGGUCCCAGCCUCCUCGCUGGCGCCGGCUGGGCAACAUUCCGAGGGGACCGUCGCCUCGGUAGUGGCGAAUGGGACCCA | 0.346 |
| GGCCGGCAUGGUCCCAGCCUCCUCGCUGGCGCCGGCUGGGCAACAUUCCGAGGGGACCGUCGCCUCGGUAAUGGCGCAUGGGACCCA | 0.353 |

| Variant | self-cleavage |
| --- | --- |
| GGCCGGCAUGGUCCCAGCCUCCUCGCUGGCGCCGGCUGGGCAACAUUCCGAGGGGACCGUCGCCUCGGUAAUGGCGGAUGGGACCCA | 0.745 |
| GGCCGGCAUGGUCCCAGCCUCCUCGCUGGCGCCGGCUGGGCAACAUUCCGAGGGGACCGUCGCCUCGGUAAUGGCGAAUGGGCCCCA | 0.253 |
| GGCCGGCAUGGUCCCAGCCUCCUCGCUGGCGCCGGCUGGGCAACAUUCCGAGGGGACCGUCGCCUCGGUAAUGGCGAAUGGGACCCC | 0.661 |
| GGCCGGCAUGGUCCCAGCCUCCUCGCUGGCGCCGGCUGGGCAACAUUCCGAGGGGACCGUCGCCUCGGUAAUGGCGAAUGGGACCCU | 0.716 |
| GGCCGGCAUGGUCCCAGCCUCCUCGCUGGCGCCGGCUGGGCAACAUUCCGAGGGGACCGUCGCCUUGGUAAUGGCGAAUGGGACCCA | 0.554 |
| GGCCGGCAUGGUCCCAGCCUCCUCGCUGGCGCCGGCUGGGCAACAUUCCGAGGGGACCGUCGCCUCGGUAAUGGUGAAUGGGACCCA | 0.189 |
| GGCCGGCAUGGUCCCAGCCUCCUCGCUGGCGCCGGCUGGGCAACAUUCCGAGGGGACCGUCGCCUCGGUAAUGGCGAAUGGGAACCA | 0.712 |
| GGCCGGCAUGGUCCCAGCCUCCUCGCUGGCGCCGGCUGGGCAACAUUCCGAGGGGACCGUCGCCUCGGUAAUGGCGAAUGGGAUCCA | 0.846 |
| GGCCGGCAUGGUCCCAGCCUCCUCGCUGGCGCCGGCUGGGCAACAUUCCGAGGGGACCGUCGCCUCGGUAAUGGCGAAUGGGACACA | 0.717 |
| GGCCGGCAUGGUCCCAGCCUCCUCGCUGGCGCCGGCUGGGCAACAUUCCGAGGGGACCGUCGCCUCGGUAAUGGCGAAUGGGACUCA | 0.902 |
| GGCCGGCAUGGUCCCAGCCUCCUCGCUGGCGCCGGCUGGGCAACAUUCCGAGGGGACCGUCGCCUCGGUAAUGGCGAAUGGGACCAA | 0.752 |
| GGCCGGCAUGGUCCCAGCCUCCUCGCUGGCGCCGGCUGGGCAACAUUCCGAGGGGACCGUCGCCUCGGUAAUGGCGAAUGGGACCUA | 0.923 |
| GGCCGGCAUGGUCCCAGCCUCCUCGCUGGCGCCGGCUGGGCAACAUUCCGAGGGGACCGUCGCCUCAGUAAUGGCGAAUGGGACCCA | 0.095 |
| GGCCGGCAUGGUCCCAGCCUCCUCGCUGGCGCCGGCUGGGCAACAUUCCGAGGGGACCGUCGCCUCGAUAAUGGCGAAUGGGACCCA | 0.199 |
| GGCCGGCAUGGUCCCAGCCUCCUCGCUGGCGCCGGCUGGGCAACAUUCCGAGGGGACCGUCGCCUCGUUAAUGGCGAAUGGGACCCA | 0.425 |
| GGCCGGCAUGGUCCCAGCCUCCUCGCUGGCGCCGGCUGGGCAACAUUCCGAGGGGACCGUCGCCUCGGUAAUAGCGAAUGGGACCCA | 0.534 |
| GGCCGGCAUGGUCCCAGCCUCCUCGCUGGCGCCGGCUGGGCAACAUUCCGAGGGGACCGUCGCCUCGGUAAUCGCGAAUGGGACCCA | 0.446 |
| GGCCGGCAUGGUCCCAGCCUCCUCGCUGGCGCCGGCUGGGCAACAUUCCGAGGGGACCGUCGCCUCGGUAAUGGCAAAUGGGACCCA | 1.02 |
| GGCCGGCAUGGUCCCAGCCUCCUCGCUGGCGCCGGCUGGGCAACAUUCCGAGGGGACCGUCGCCUCGGUAAUGGCGAAUGCGACCCA | 0.208 |
| GGCCGGCAUGGUCCCAGCCUCCUCGCUGGCGCCGGCUGGGCAACAUUCCGAGGGGACCGUCGCCUCGGUAAUGGCGAAUGGUACCCA | 0.0923 |
| GGCCGGCAUGGUCCCAGCCUCCUCGCUGGCGCCGGCUGGGCAACAUUCCGAGGGGACCGUCGCCCCGGUAAUGGCGAAUGGGACCCA | 0.427 |
| GGCCGGCAUGGUCCCAGCCUCCUCGCUGGCGCCGGCUGGGCAACAUUCCGAGGGGACCGUCUCCUCGGUCAUGGCGAAUGGGACCCA | 0.734 |

| Variant | self-cleavage |
| --- | --- |
| GGCCGGCAUGGUCCCAGCCUCCUCGCUGGCGCCGGCUGGGCAACAUUCCGAGGGGACCGUCUCCUCGGUUAUGGCGAAUGGGACCCA | 0.831 |
| GGCCGGCAUGGUCCCAGCCUCCUCGCUGGCGCCGGCUGGGCAACAUUCCGAGGGGACCGUCUCCUCGGUAUUGGCGAAUGGGACCCA | 1.05 |
| GGCCGGCAUGGUCCCAGCCUCCUCGCUGGCGCCGGCUGGGCAACAUUCCGAGGGGACCGUCUCCUCGGUAAUGGCGGAUGGGACCCA | 0.831 |
| GGCCGGCAUGGUCCCAGCCUCCUCGCUGGCGCCGGCUGGGCAACAUUCCGAGGGGACCGUCUCCUCGGUAAUGGCGACUGGGACCCA | 0.0936 |
| GGCCGGCAUGGUCCCAGCCUCCUCGCUGGCGCCGGCUGGGCAACAUUCCGAGGGGACCGUCUCCUCGGUAAUGGCGAUUGGGACCCA | 0.282 |
| GGCCGGCAUGGUCCCAGCCUCCUCGCUGGCGCCGGCUGGGCAACAUUCCGAGGGGACCGUCUCCUCGGUAAUGGCGAAUGGGCCCCA | 0.359 |
| GGCCGGCAUGGUCCCAGCCUCCUCGCUGGCGCCGGCUGGGCAACAUUCCGAGGGGACCGUCUCCUCGGUAAUGGCGAAUGGGUCCCA | 0.318 |
| GGCCGGCAUGGUCCCAGCCUCCUCGCUGGCGCCGGCUGGGCAACAUUCCGAGGGGACCGUCUCCUCGGUAAUGGUGAAUGGGACCCA | 0.173 |
| GGCCGGCAUGGUCCCAGCCUCCUCGCUGGCGCCGGCUGGGCAACAUUCCGAGGGGACCGUCUCCUCGGUAAUGACGAAUGGGACCCA | 0.383 |
| GGCCGGCAUGGUCCCAGCCUCCUCGCUGGCGCCGGCUGGGCAACAUUCCGAGGGGACCGUCUCCUCGGUAAUGCCGAAUGGGACCCA | 0.234 |
| GGCCGGCAUGGUCCCAGCCUCCUCGCUGGCGCCGGCUGGGCAACAUUCCGAGGGGACCGUCUCCUCGGUAAUGGCGAAUGAGACCCA | 0.531 |
| GGCCGGCAUGGUCCCAGCCUCCUCGCUGGCGCCGGCUGGGCAACAUUCCGAGGGGACCGUCUCCUCGGGAAUGGCGAAUGGGACCCA | 1.07 |
| GGCCGGCAUGGUCCCAGCCUCCUCGCUGGCGCCGGCUGGGCAACAUUCCGAGGGGACCGUCUCCUCGGUAACGGCGAAUGGGACCCA | 0.636 |
| GGCCGGCAUGGUCCCAGCCUCCUCGCUGGCGCCGGCUGGGCAACAUUCCGAGGGGACCGUCCACUCGGUAAUGGCGACUGGGACCCA | 0.108 |
| GGCCGGCAUGGUCCCAGCCUCCUCGCUGGCGCCGGCUGGGCAACAUUCCGAGGGGACCGUCCACUCGGUAAUGGCGAAUGGGUCCCA | 0.77 |
| GGCCGGCAUGGUCCCAGCCUCCUCGCUGGCGCCGGCUGGGCAACAUUCCGAGGGGACCGUCCACUCGGUAAUGGCGAAUGGGACGCA | 0.849 |
| GGCCGGCAUGGUCCCAGCCUCCUCGCUGGCGCCGGCUGGGCAACAUUCCGAGGGGACCGUCCACUCGGUAAUAGCGAAUGGGACCCA | 0.681 |
| GGCCGGCAUGGUCCCAGCCUCCUCGCUGGCGCCGGCUGGGCAACAUUCCGAGGGGACCGUCCACUCGGUAAUCGCGAAUGGGACCCA | 0.332 |
| GGCCGGCAUGGUCCCAGCCUCCUCGCUGGCGCCGGCUGGGCAACAUUCCGAGGGGACCGUCCACUCGGUAAUUGCGAAUGGGACCCA | 0.3 |
| GGCCGGCAUGGUCCCAGCCUCCUCGCUGGCGCCGGCUGGGCAACAUUCCGAGGGGACCGUCCACUCGGUAAUGGCGAAUCGGACCCA | 0.332 |

Reference: the RNAGym collection of RNA variant scans (doi:10.7554/elife.80360)
